Data on one molecule can be found in patent US20250340658A1 (TWIST BIOSCIENCE, published 2025).

Read-outs that look alike come from different tables or passages of the source.

The target in test [1] is T1, full length human GLP-1R with N-terminal FLAG tag and C-terminal GFP tag, on CHO cells (human, UniProt P43220 24-463).
T1 construct: whole, on cells; the cell line itself is tied to UniProt P43220; also called FLAG-GLP-1R-GFP; CHO-GLP-1R
The test is described as follows: flow cytometry, GLP1R-expressing CHO cells. The procedure: (§1) GLP-1R IgG clones were tested in a binding assay coupled to flow cytometry analysis as follows: FLAG-GLP-1R-GFP expressing CHO cells (CHO-GLP-1R) and CHO-parent cells were incubated with 100 nM IgG for 1 h on ice, washed three times and incubated with Alexa 647 conjugated goat-anti-human antibody (1:200) (Jackson ImmunoResearch Laboratories, 109-605-044) for 30 min on ice, followed by three washes, centrifuging to pellet the cells between each washing step. All incubations and washes were in buffer containing PBS+1% BSA. […] Cells were analyzed by flow cytometry and hits (a hit is an IgG that specifically binds to CHO-GLP-1R) were identified by measuring the GFP signal against the Alexa 647 signal. Flow cytometry data of binding assays with 100 nM IgG are presented as dot plots. Analyses of binding assays with IgG titrations are presented as binding curves plotting IgG concentrations against MFI (mean fluorescence intensity).

Test [2] addresses T1, full length human GLP-1R with …. The test is described as follows: flow cytometry, expressing vs parent CHO cells. On the procedure: as §1
In general terms: A flow cytometer gives signals particle by particle.

The target is the same in test [3]. The test is described as follows: flow cytometry, expressing vs parent CHO cells. The procedure: as §1
This is another data set of the same source.

Test [4] shares this target. The test is described as follows: flow cytometry titration, CHO GLP1R cells. On the procedure:
as §1

Test [5] shares this target. The test is described as follows: flow cytometry, expressing vs parent CHO cells. The procedure: as §1
This is another data set of the same source.

Test [6] has the same target. The test is described as follows: flow cytometry, expressing vs parent CHO cells. On the procedure: as §1
This is another data set of the same source.

For test [7] the target is unchanged. The test is described as follows: flow cytometry titration, CHO GLP1R cells. On the procedure:
as §1
The source holds these as a separate data set.

The target is the same in test [8]. The test is described as follows: flow cytometry, expressing minus parent CHO cells. On the procedure: as §1
For test [9] the target is unchanged. The test is described as follows: flow cytometry, expressing minus parent CHO cells. The procedure:
as §1
The source holds these as a separate data set.

Test [10] shares this target. The test is described as follows: flow cytometry, GLP1R-expressing CHO cells. On the procedure: as §1
This is another data set of the same source.

B1: GLP1R-3 (antibody, human IgG2, lambda, V domains shown)
VH: QVQLVESGGGVVQPGRSLRLSCAASGFTFSSYGMHWVRQAPGKGLEWVSFISYDESNKYYADSVKGRFTISRDNSKNTLYLQMNSLRAEDTAVYYCAKHMSMQEGAVTGEGQAAKEFIAWLVKGRVRADLVGDAFDVWGQGTLVTVSS
VL: QSVLTQPPSVSAAPGQKVTISCSGSSSNIADNYVSWYQQLPGTAPKLLIYDNNKRPSGIPDRFSGSKSGTSATLGITGLQTGDEADYYCGTWDNYLGAGVFGGGTKLTVLG
notes: full length human IgG2; also called GLP1R01-3
As for B1, the figures for the “Median RL1-H of Expressing Singlets” value in test [1] and in test [10] were 232000 and 224000, respectively. Besides, the “MFI Ratio” value in test [2] was determined as 740; in test [3], 993; in [5], 993; in [6], 740. The figures for the Bmax in test [4] and in test [7] were 153000 and 800000, respectively. Moreover, the EC50 in test [4] was 15.4 nM; in test [7], 11.5 nM. Besides, the Subtraction amounted to 224000 in test [8] and 232000 in [9].

As a reminder, the EC50 is the concentration needed to bring the measured effect to its halfway point. Read a high EC50 as lower potency in that assay.
